Data: a protein production outcome set (Wang et al. 2014)

Test: label from the status in PepcDB records

Sequence	protein production
MSPVLLFILGVVFVAIGVAVSIALHEVGHLVPAKLFKVRVTKYMIGFGPTLWSKKKGETEYGFKALPLGGYVSMIGMYPPNKEDGAVRPSSTGMFQTLATEARSMAHEEVGPGDENRVFYKLPVWKKIIVMLGGPAMNMLIGLILLAVLLMGFGMATATTTIADVSKCQVAAGETVDPDSADCKLTPAAAAGLQPNDTITSFDGKAVTSWDELTSWIRASAGRDVPITVERNGSTVETTVTPVLSSRPVVGADGRPEQDADGVLKYQEVGFLGIGAQSELVPQPASAVLPMAGENIKQISGVIFNLPARVVGVAKAAFSEEPRDPNGPISVVGVGRVAGEVAAMEQVPMQARIGTLIGLLAGLNFALAIFNLIPLLPLDGGHVAGALYEGARRRVAKLLGKPDPGAFDIAKLLPATYVVAALLMAMGALLIYADIVKPVNIFG	failed
MLRSLDIRDMLIIDRLSLAFQPGLNVLTGETGAGKSILLDSLGFVLGWRGRAELVRAGADKGEVTAVFDLPPGHAARAVLDEAGIEAEDELILRRVNFADGRKTAWVNDRRVSGEVLRGLSDRLVELHGQHDDRGLLNPRGHRQMLDTFAGLDLSACRRAWTALGTARRTLLAAEEALAAVRAEEDFLRHAVAELDKLDPQPGEEALLDTRRREMQGAEKIRDDIARAHRALSAEGAETLLVD	failed
MRPVLVLLHRYVGLATALFLFLAGLTGSLLAFHHEIDEWLNPGFYAVGEGGERLSPGSLVQRVESRYPRQLVWYMEYPEAGGHPALLATVPREAGAKVEHDVFYLDPVSGEEVGKRLWAACCFQPANLVPWVLEFHHNLTLPGNWGLYLMGGVAMFWFLDCFVGAWLTLPRGRPFWSKWTTAWKIKRGNAYRFNFDLHRAGGLWLWLLLAPVALSSVALNLPSQVFKPLVSLFSPIEPSVYEARGRLPREQLGETRLDYDRTFQLASVEAARLGIAEPIGELYYSFEYNFFGAGFGDHDDPMGKSWLFFHGSDGRLLGQEVAGQGSWGERFYRLQYPIHGGRIAGLPGRIAIAALGLAIAGLSLTGVYIWWRKRRARHWNGR	failed
MSHVSDYRPCFLIPCYNHGSTIADVVASLSSFDLPVLVVDDGSNEDTKQALSALSEQGLIKLISLSENQGKGGAVMAGLHQAHQLGFTHTIQIDADGQHDLEALPKLLSASETKPDNLISGQPIYDESVPKARLYGRYATHIWVWIETLSLSIKDSMCGFRAYPVAKTVAVLNKYNIGKRMDFDIEILVRMYWEGVDIDFVPTRVIYPEGGISHFDALWDNVKISWMHTRLFFGMLPRIPSLLARKRRHTDDSNAHWSKRKEQGTILGIKTLLAVYRLFGRKAFDLILKLVMRYYHFTGKSAREASEIYLQNLQRYAAQQNIALPKQLDSYHHLLSFGRTMLDKLAAWQGDFNVDNLTIHGQHHFEEMAQKKQGVLILGSHLGNIELCRALGRRHSHVKINALVFTQHAEQFNAVMKAVNPNSELNLIQVSSMGPDTAILLQQKIEQGEWVVIVGDRTSTSKENRVVWADFLGKPAPFPQGPFMLASVLKAPVYLLFGLRDDEANTPHFNVYFEHFSDQITLPRKERQQALEHVVQQYAHRLEHHTLQAPLQWYNFFNFWTLSNQPHDKQQ	failed
MTNLRKILLIPALIVVSVSSFFSCGVDRWPEYAHLTELDTWMYDIMQQNYLWYQYMPGYDEVNLFQDPATFLSKAKWDKDSYSFVDSVLEAPLPTYGFDYSLVKSQDNDTAYNALITYVIPESPAEKAGLQRGDWIMKVDTSYISKKYETQLLQGTIARELSMGVWKEVEEEPEEGEEVPEEPVMVYKVVPNGVTLDLGAAQSIEDQPVHKYKILTLDNGAKVGYLMYNSFTAGTNNDPEKYNNELRKVSTIFQEANVQATILDLRYNEGGSLDCVQLLATILVPNARMGTPMAYLEYNDKNLDKDATINFDQEVLKTGVNLNQNTLVAITSGTTAGAAEMLLTSLYKEEQAPNIIVMGSASKGQTVATEQFINETYRWSVNPVVCTVYNSDHDAGEDAFVLVPSDKFKISETSINGTTDYSQFLPFGNPKERMLSIAIQTLEGTYPPKDEDKEEETRSTKSIKIEKSVSSPASRRFAGGLRIK	failed
MTNWLIAYQGEPGAYSEIAALRFGEPLPCESFDDVFSAVTEQKADYAVIPIENSLGGSIHQNYDLLLRRPVVILAETFVKVEHCLLGLPGASVETATKAMSHPQALVQCHNFFATHPQIRAEAAYDTAGSAKMVAESRDKSALAIASKRAGELYGLDILKENLADEEWNITRFFCIAHENN	not failed
MSLSEIKHWVFDMDGTLTIAVHDFAAIREALSIPAEDDILTHLAALPADESAAKHAWLLEHERDLAQGSRPAPGAVELVRELAGRGYRLGILTRNARELAHVTLEAIGLADCFAEADVLGRDEAPPKPHPGGLLKLAEAWDVSPSRMVMVGDYRFDLDCGRAAGTRTVLVNLPDNPWPELTDWHARDCAQLRDLLSAEGHHHHHH	not failed
MTEYWVSQGNKWCEFCKIWIQNNPTSIRNHDLGKRHRECVDKKLTDMRERSAAKDKELKKNEKLLQQIEAKATRSYQKDIATAQQVAKANGAPEDGTSDWMLDSASGYYYNQTNGLHYDSQSGFYYSDSIGHWVTQDEAYAAVKTSSGTKVPLVKKPVSSSGAGPSVGKPPGRLVTASLNPKRAVKGAASSVDLGNNKRKRQDEKPKKVSAEEKAALKAREAARKRVEDREKPLLGLYNRPF	failed
MLSTEHFLLFASIVLFAGIMAGKVGYRFGIPTLLIFLFTGMLFGVDGFGFQFSNADVAQSVGIIALSIILFTGGMDTRIRKVRPVIAQGLTLSTLGVLLTALLSGFFIFWLSGSDFGPYPFALSTSLLLAATMASTDSASVFAILRSQKMQLKENLAPTLEMESGSNDPMAYMLTIALIDFITTGQSGIGSIVLTFILQFVVGGTLGFLMGRLAVFILNRMNIHNDTLYPITLLCMVFFTFSVTSLLQGNGYLAVYIAGIVVGNNRVIHKKSINTFLDGITWLVQIILFILLGLLVNPREMLDVAPFSLVVGAFMILIARPLAVYFCLIPFRKISFRGKTFLSWVGLRGAVPIIFATYPMIDNIPGADQLFNVVFFITILSLLVQGSTISQVARWLGLDIPSPPIGSLFGVEIPEETGTKLEERVVDASMLSHGDLLMNLSLRDEELVILVRRGEGYRVPKGRMHLQVGDVLLIVSEKNLSQTLTSGDPENHPGLLQRLKHRLLRR	failed
MAMWVFGYGSLIWKTGFPFDESLPGFIKGYRRVFHQGSTDHRGTPDFPGRTVTLEAAHEEHLEVREKQYDQKEYLDFFTDSNASEPAVAGVMVYIASPDKKSNNNYLGPAPLEDIAKQIVKAKGPSGPNRDYLFNLEEALAQLGFKDKHVTDLANQVRHILSESEELDIDATAATANNV	failed
MKVYIETMGCAMNSRDSEHLLSELSKLDYKETNDPKTADLILINTCSVREKPERKLFSEIGQFAKIKKPNAKIGVCGCTASHMGADILKKAPSVSFVLGARNVSKISQVIHKEKAVEVAIDYDESAYAFEFFEKKAQIRSLLNISIGCDKKCAYCIVPHTRGKEISIPMDLILKEAEKLANNGTKELMLLGQNVNNYGARFSSEHAKVDFSDLLDKLSEIQGIERIRFTSPHPLHMNDGFLERFAKNPKVCKSIHMPLQSGSSAVLKMMRRGYSKEWFLNRVERLKALVPEVGISTDIIVGFPNESDKDFEDTMEVLEKVRFDTLYSFIYSPRPFTEAGAWKERVPLEVSSSRLERLQNRHKEILEEKAKLEVGKTHVVLVENRREMDNQIVGFEGRSDTGKFIEVTCKEKRNPGELVKVEIISHSKGRLMAATKGN	failed
SEKYNSLSDFLKEFYIPTYVLSAETEEEEEEESRPTPASPVLVFINSKSGGQLGGELILTYRSLLNHNQVFDLDQETPDKVLRRIYLNLERLKDDDFARQIREKLKIIVAGGDGTAGWLLGVVCDLKLSHPPPIATVPLGTGNNLPFAFGWGKKNPGTDRTAVESFLEQVLKAKVMKIDNWHILMRMKTPKEGGSCDPVAPLELPHSLHAFHRVSPTDELNKEGCHTFRGGFWNYFSLGMDAQISYAFHSERKLHPEKFKNQLVNQSTYVKLGCTQGWFCASLFHPASRNIAQLAKVKIATRNGQWQDLHIPHSIRSIVCLNLPSFSGGLNPWGTPNPRKQRDRGLTPPFVDDGLIEVVGFRNAWHGLVLLAPNGHGTRLAQANRIRFEFHKGATDHTFMRMDGEPWKQPLPLDDETVMVEISHLGQVNMLATHDCRSRSVFDPSTPRHQDGAEDYDDNEDDSVAEGEEFRKFGAADTFKIPDEVDISQLS	failed
MSLDSDPDTLVVHTQLGTTAPGSPTYLAAVDRFREENPGVKIKNLVNGDDLAQVYETSRLARKEADVVMVNLYDKTLAWTDVGATVDVKPYLDDWGLRGRVLPAALADWTDDEGRVRAFPYFATNWPVAYNRALLDRAGVDAIPTTGDQLIAAARKLRAKGIAPVTVGGNDWTGQKLLAQIIQTFLSQDEARHVYSTGDFGVRGARLGIEYFAHLRDAGVFADKAQGLTSDSMTTQFNTEEAAVQSAMSSALAKVPEKVAGHTEVGGWPLADGAAHDGPTVIRAYTLIGFWISPNGVRKIEQVEKFLRFMYRPDVVARFVTESGRDMALRTDAVSTGFPLVGAAQRLGSEVSQVLLPDVYVPPAAAQPLITATSTSFTRGTSPARVRAALESAYRSVEGHHHHHH	not failed
MTVQTAIFDLIKQAKTIIIHRHQRPDPDAIGSQLGLAAIIKASFPAKRVLTPGKQYHGFDWLGQMDEVTEADYQDALVLILDTANQPRIDGELWNQGKTIVKIDHHPNDDAFGDPQWVDVDASSTSEMIYNWYAPLAAELTLTANAARLLYAGIVGDTGRFLYSATKPSTMRAAAALMEAGADAEAVNRIEDTITLPVARLSAYVYEHLTQLDSGAAYVILTNAILDSFAIGDASTAGVVPLPGRIDTVKCWAIFVQQKEGDFRIRLRSKGPSINGVAKNHDGGGHALASGAKAKDQQEIETVVRELDQVASQYEKEVLEHHHHHH	failed
MDFLGILCLLILATTLAGHFAHRAGIPAVIGEILVGVILGPALLNWVHLTTLVQTFSDIGVVVLMFIGGLESNLALLRKYLRPAIIVAIIGVIFPVVIMGLASRFFQFSWFESLFIGVIFSATSVSISVEVLKEFKVLDTKEGATILGAAVADDIIGVILLSIMIAMMGGQSGVAQTNLGIVLLEQVGFFIGVFIVIKWVAPYLMRLSDHLLMAASPTIMAIIICLALAWLAELVGLSGAIGAFFAGVAIAQTDYQHVVDVSIEPVGYTTFIPLFFVSVGLNMTFKGVWQSLPFIVVMTVLGVLTKLWGCGLGAKLNGFSRHSNYLVGAGMISRGEMALITAQIGFSAHLLSNDYYSDIILVIIVVTMIAPFVLKNAIHRAGQVTATHSIIEEH	failed
MYHVTVGISEKEYDAFAIASSQTNLLHSSKWAQVKSNWQNERLGFYKDDQLVAVASILIKSLPLGFTMLYIPRGPIMDYSNKELVNFVLKTLKNFGRKKRAVFAKFDPALLLRQYHLKEENVAEEIDESRQAIDNLKSAGAQWIGPTKAISETIQPRFQANIYTKANIEENFPKHTKRLIKDAKHRGVQIYRANIDDLPKFATVVALTENRKGVALRNENYFHQLMTIYGEDAYLYLAKVNLPKRLAQFKEQLLQIQKDLSETPSHQKSRLTRLNQQEASVKQYILEFQEFSKKYPDEPVIAGILSIRFGNVLEMLYAGMDDSFRKFYPQYLLNARVFEDAFKNDIVSANLGGVEGSLNDGLTKFKSNFNPMFEEYIGEFNLAINPLLYKLANLAYTIRKKQRHSH	failed
MFKNLIWLKEVDSTQERLKEWNVSYGTALVADRQTKGRGRLGRKWLSQEGGLYFSFLLNPKEFENLLQLPLVLGLSVSEALEEITEIPFSLKWPNDVYFQEKKVSGVLCELSKDKLIVGIGINVNQREIPEEIKDRATTLYEITGKDWDRKEVLLKVLKRISENLKKFKEKSFKEFKGKIESKMLYLGEEVKLLGEGKITGKLVGLSEKGGALILTEEGIKEILSGEFSLRRS	not failed
MVPKFYKLSNGFKIPSIALGTYDIPRSQTAEIVYEGVKCGYRHFDTAVLYGNEKEVGDGIIKWLNEDPGNHKREEIFYTTKLWNSQNGYKRAKAAIRQCLNEVSGLQYIDLLLIHSPLEGSKLRLETWRAMQEAVDEGLVKSIGVSNYGKKHIDELLNWPELKHKPVVNQIEISPWIMRQELADYCKSKGLVVEAFAPLCHGYKMTNPDLLKVCKEVDRNPGQVLIRWSLQHGYLPLPKTKTVKRLEGNLAAYNFELSDEQMKFLDHPDAYEPTDWECTDAP	failed
